Measured values taken from patent publication US12162911B2, “Pulmonary administration of pyocins for treating bacterial respiratory infections” (priority 2014, dated 2024).

Tests used:
[1] = test system: P. aeruginosa; details: in vivo; cited from earlier work
[2] = test system: P. aeruginosa P17; assay: Mouse model of acute lung infection, P. aeruginosa P17; assay type: in vivo, Pseudomonas aeruginosa
Description: (§1) Model of acute lung infection. Female C57/BL6 mice were inoculated intranasally with 25 μl of bacterial culture containing approximately 10^7 CFU of the selected P. aeruginosa strain^36. Antibiotic treatments were administered at either 6 h pre-infection or 1 h post-infection and were administered only once. Pyocins or tobramycin dissolved in PBS were administered via intranasal administration as described above. Two different end-points were used in these experiments. In order to determine a reduction in the bacterial load of the lungs compared to the untreated controls, all mice in the experiment were culled by carbon dioxide asphyxiation at the same time; 4-6 h post infection. To determine if mice could survive infection after pyocin or tobramycin treatment, mice were monitored closely, culled by carbon dioxide asphyxiation when required as determined by a scoring system or culled at the pre-determined 24 h time point. Uninfected mice, treated with pyocins, were used as controls in the first series of experiments in order to ensure no adverse effects from pyocin treatment. These controls were stopped in later experiments in order to reduce the number of animals used, once it was clear that the pyocins were not harmful. For CFU determination, lungs were removed aseptically and kept on ice in 750 μl of PBS until homogenised. Serial 10-fold dilutions of the homogenised lung were plated on Pseudomonas selective agar (20 g peptone, 1.5 g K2HPO4, 1.5 g MgSO4·7H2O, 10 ml glycerol, 15 g agar, 0.025 g Irgasan per litre) and incubated at 37° C. for 24 h and then room temperature for 24 h before the colonies were counted.
Since strains of P. aeruginosa are phenotypically diverse, we tested the efficacy of the pyocins against three additional isolates: P. aeruginosa P17 and P. aeruginosa P5 (mucoid), both from cystic fibrosis patients and P. aeruginosa E2, an environmental isolate. Pyocin S2 was not active against P. aeruginosa P5 or P. aeruginosa E2 in vitro therefore was not used to treat these strains in vivo and similarly pyocin L1 was not used against P. aeruginosa P17. […] Lung homogenates from P. aeruginosa E2-infected AP41-treated mice contained high levels of viable bacteria, reduced only 10-fold relative to control mice (Table 1). […] Thus, pyocins show strong efficacy against diverse strains of P. aeruginosa with pyocin S5 treatment displaying the largest effect on reducing bacterial load.

[3] = test system: P8AP41T; assay: Mouse model of acute lung infection, AP41 tolerant strain P8AP41T; assay type: in vivo, Pseudomonas aeruginosa; details: 3 mg ml^−1 1 h post-infection
Description: as §1
In order to determine if pyocin tolerance or resistance was acquired upon pyocin treatment in vivo, viable bacteria recovered from mice that survived infection to the 24 h end-point, in all experiments discussed in this work, were tested for pyocin susceptibility. From these experiments no pyocin resistant colonies were isolated. […] Importantly, sensitivity to pyocins S5 and L1 were unaffected in vitro in this pyocin AP41-tolerant strain (FIG. 3a) and this was also shown to be the case in vivo when mice were infected with P8AP41T.

[4] = test system: P. aeruginosa P8; assay: Mouse model of acute lung infection, P. aeruginosa P8; assay type: in vivo, Pseudomonas aeruginosa
Description: Study design. […] For all experiments 6 week-old, female, murine pathogen free C57/BL6 mice weighing 15-21 g were used (Charles Rivers Laboratories, UK). All mice received food and water ad libitum and were housed in groups during the experiments. Power calculations were used to predetermine sample size (n=6, for all treatment experiments). Mice were culled when required as determined by a scoring system or culled at the pre-determined 24 h time point. All mice, including outliers were included in the statistical analysis. Experiments were either carried out once only or repeated once (defined for each experiment).
as §1

[5] = test system: P. aeruginosa P5; assay: Pyocin activity in vitro against P. aeruginosa P5; assay type: cell-based, Pseudomonas aeruginosa
Description: (§2) Pyocin sensitivity assays: overlay spot plate method. Soft agar overlay spot plates were performed using the method of ^35. 150 μl of test strain culture at OD600 nm=0.6 was added to 6 ml of 0.8% soft agar and poured over an LB agar plate. 5 μl of bacteriocin, lung homogenate or blood at varying concentrations was spotted onto the plates and incubated for 24 h at 37° C.
(§3) Since strains of P. aeruginosa are phenotypically diverse, we tested the efficacy of the pyocins against three additional isolates: P. aeruginosa P17 and P. aeruginosa P5 (mucoid), both from cystic fibrosis patients and P. aeruginosa E2, an environmental isolate.

[6] = test system: P. aeruginosa E2; assay: Pyocin activity in vitro against P. aeruginosa E2; assay type: cell-based
Description: as §2, §3

B1: Pyocin S2: S-type pyocin, SEQ ID NO: 1; targeting domain binds FpvAI, effector has DNase activity (protein, listed as Pseudomonas aeruginosa)
chain: MAVNDYEPGSMVITHVQGGGRDIIQYIPARSSYGTPPFVPPGPSPYVGTGMQEYRKLRSTLDKSHSELKKNLKNETLKEVDELKSEAGLPGKAVSANDIRDEKSIVDALMDAKAKSLKAIEDRPANLYTASDFPQKSESMYQSQLLASRKFYGEFLDRHMSELAKAYSADIYKAQIAILKQTSQELENKARSLEAEAQRAAAEVEADYKARKANVEKKVQSELDQAGNALPQLTNPTPEQWLERATQLVTQAIANKKKLQTANNALIAKAPNALEKQKATYNADLLVDEIASLQARLDKLNAETARRKEIARQAAIRAANTYAMPANGSVVATAAGRGLIQVAQGAASLAQAISDAIAVLGRVLASAPSVMAVGFASLTYSSRTAEQWQDQTPDSVRYALGMDAAKLGLPPSVNLNAVAKASGTVDLPMRLTNEARGNTTTLSVVSTDGVSVPKAVPVRMAAYNATTGLYEVTVPSTTAEAPPLILTWTPASPPGNQNPSSTTPVVPKPVPVYEGATLTPVKATPETYPGVITLPEDLIIGFPADSGIKPIYVMFRDPRDVPGAATGKGQPVSGNWLGAASQGEGAPIPSQIADKLRGKTFKNWRDFREQFWIAVANDPELSKQFNPGSLAVMRDGGAPYVRESEQAGGRIKIEIHHKVRIADGGGVYNMGNLVAVTPKRHIEIHKGGK
- activity in an invertebrate model of infection [1]: active
- survival / protection ([2]; pyocin 3 mg ml^−1, endpoint 24 h, infected controls culled at 4 h): survived until the 24 h endpoint
- bacterial count in lung, P17 ([2]; pyocin 3 mg ml^−1, treated mice survived to 24 h, no treatment 4.4 × 10^5 CFU/lung): No colonies
- bacterial numbers in lung homogenates ([3]; 24 h (FIG. 3b)): significantly reduced bacterial numbers
- survival ([3]; endpoint 24 h, PBS controls culled 6 h post-infection (FIG. 3b)): survived until the endpoint of the experiment at 24 h
- survival ([4]; 300 μg ml^−1 and 30 μg ml^−1 (both concentrations), endpoint 24 h post-infection): survived until the endpoint of the experiment at 24 h post-infection
- reduction of bacterial load in lung ([4]; 3 mg ml^−1 intranasal 1 h post-infection, culled 4.5 h post-infection (FIG. 1c)): ~80 fold
- reduction of bacterial numbers in lung ([4]; C57/BL6 mice, 3 mg ml^−1 intranasal 6 h pre-infection, culled 4 h post-infection (FIG. 1a)): approximately 25 fold
- Lowest active concentration tested ([4]; lowest concentration tested with which the treated mice survived to 24 h): 30 µg/mL
- Corresponding molarity ([4]; molarity of lowest active concentration tested): 358 nM
- activity in vitro [5]: not active
- activity in vitro [6]: not active
